Reference: patent US20200190201A1

Key:
[1] = target: human TrkC (full-length TrkC receptor) (human) (UniProt Q16288); experiment: flow cytometry on HEK293 cells stably expressing TrkC-FL, background controls
[2] = target: human TrkC (full-length TrkC receptor) (human) (UniProt Q16288); experiment: cell-based or functional assay
[3] = target: rat TrkC (on rat spiral ganglion neurons) (rat) (UniProt Q03351); experiment: cell-based or functional assay
[4] = target: human TrkB (human) (UniProt Q16620); experiment: cell-based or functional assay
UniProt Q16620, sequence (Q16620 32-822): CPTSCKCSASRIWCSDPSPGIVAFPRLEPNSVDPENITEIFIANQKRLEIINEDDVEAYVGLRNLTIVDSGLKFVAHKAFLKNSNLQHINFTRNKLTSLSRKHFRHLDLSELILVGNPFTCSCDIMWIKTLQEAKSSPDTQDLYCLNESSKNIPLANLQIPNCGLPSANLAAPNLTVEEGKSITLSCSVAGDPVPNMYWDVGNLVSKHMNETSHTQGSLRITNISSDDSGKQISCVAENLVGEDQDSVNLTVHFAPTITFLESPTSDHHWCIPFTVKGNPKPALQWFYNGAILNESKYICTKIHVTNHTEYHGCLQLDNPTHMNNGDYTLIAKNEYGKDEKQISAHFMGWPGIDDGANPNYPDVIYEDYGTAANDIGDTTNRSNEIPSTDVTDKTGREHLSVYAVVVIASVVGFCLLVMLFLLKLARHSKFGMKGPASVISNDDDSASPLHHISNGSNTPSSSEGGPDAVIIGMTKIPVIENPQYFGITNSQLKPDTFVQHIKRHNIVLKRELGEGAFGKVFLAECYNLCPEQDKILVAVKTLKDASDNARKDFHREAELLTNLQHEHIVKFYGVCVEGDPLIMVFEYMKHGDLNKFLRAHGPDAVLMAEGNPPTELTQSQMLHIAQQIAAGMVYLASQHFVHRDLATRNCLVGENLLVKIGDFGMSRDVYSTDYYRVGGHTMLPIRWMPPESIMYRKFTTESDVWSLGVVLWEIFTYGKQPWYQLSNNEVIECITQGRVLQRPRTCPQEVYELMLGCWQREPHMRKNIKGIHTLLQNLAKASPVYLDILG

[5] = target: rat TrkB (on rat spiral ganglion neurons) (rat) (UniProt Q63604); experiment: cell-based or functional assay
UniProt Q63604, sequence (Q63604 32-821): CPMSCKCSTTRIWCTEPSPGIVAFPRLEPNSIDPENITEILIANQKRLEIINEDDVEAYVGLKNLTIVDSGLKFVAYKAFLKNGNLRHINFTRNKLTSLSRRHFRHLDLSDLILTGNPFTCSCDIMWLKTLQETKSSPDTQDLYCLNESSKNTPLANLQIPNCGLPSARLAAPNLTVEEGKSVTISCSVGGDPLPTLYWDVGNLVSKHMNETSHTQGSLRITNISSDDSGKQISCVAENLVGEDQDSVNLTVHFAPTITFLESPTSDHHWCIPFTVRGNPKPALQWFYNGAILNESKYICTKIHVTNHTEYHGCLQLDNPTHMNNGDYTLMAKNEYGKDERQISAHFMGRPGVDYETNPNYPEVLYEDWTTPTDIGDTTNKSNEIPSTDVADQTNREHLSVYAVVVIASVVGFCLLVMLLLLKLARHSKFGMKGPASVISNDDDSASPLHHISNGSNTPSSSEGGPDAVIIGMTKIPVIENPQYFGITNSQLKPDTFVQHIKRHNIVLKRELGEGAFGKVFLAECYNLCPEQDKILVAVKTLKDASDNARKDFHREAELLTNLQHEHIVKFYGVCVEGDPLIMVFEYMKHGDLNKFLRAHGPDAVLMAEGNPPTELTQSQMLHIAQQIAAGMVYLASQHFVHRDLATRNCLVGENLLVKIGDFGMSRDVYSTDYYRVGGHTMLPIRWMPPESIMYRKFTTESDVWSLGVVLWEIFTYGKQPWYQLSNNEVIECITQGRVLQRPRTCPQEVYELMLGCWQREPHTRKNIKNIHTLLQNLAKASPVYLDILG

UniProt Q16288, sequence (Q16288 32-839): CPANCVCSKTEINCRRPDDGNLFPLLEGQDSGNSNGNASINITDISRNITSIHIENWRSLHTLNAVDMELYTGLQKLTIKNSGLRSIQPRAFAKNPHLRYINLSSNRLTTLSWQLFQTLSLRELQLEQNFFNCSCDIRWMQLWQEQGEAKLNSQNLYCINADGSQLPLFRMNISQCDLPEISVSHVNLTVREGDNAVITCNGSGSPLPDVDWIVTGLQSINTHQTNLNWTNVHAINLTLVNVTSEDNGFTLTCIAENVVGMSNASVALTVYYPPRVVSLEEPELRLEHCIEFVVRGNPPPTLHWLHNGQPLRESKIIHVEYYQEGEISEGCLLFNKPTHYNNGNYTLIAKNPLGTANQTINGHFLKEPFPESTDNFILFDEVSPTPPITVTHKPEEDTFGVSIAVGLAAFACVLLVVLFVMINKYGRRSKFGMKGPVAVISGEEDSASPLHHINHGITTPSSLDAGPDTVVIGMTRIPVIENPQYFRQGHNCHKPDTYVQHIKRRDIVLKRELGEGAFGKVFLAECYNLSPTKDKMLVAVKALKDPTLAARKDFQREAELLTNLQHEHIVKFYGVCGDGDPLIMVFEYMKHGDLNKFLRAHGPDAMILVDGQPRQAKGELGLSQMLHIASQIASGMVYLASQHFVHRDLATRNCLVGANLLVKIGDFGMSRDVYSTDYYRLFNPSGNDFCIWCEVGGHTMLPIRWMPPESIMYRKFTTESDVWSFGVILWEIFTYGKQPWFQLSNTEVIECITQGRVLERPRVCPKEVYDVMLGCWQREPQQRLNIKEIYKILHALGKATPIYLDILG
UniProt Q03351, sequence (Q03351 32-864): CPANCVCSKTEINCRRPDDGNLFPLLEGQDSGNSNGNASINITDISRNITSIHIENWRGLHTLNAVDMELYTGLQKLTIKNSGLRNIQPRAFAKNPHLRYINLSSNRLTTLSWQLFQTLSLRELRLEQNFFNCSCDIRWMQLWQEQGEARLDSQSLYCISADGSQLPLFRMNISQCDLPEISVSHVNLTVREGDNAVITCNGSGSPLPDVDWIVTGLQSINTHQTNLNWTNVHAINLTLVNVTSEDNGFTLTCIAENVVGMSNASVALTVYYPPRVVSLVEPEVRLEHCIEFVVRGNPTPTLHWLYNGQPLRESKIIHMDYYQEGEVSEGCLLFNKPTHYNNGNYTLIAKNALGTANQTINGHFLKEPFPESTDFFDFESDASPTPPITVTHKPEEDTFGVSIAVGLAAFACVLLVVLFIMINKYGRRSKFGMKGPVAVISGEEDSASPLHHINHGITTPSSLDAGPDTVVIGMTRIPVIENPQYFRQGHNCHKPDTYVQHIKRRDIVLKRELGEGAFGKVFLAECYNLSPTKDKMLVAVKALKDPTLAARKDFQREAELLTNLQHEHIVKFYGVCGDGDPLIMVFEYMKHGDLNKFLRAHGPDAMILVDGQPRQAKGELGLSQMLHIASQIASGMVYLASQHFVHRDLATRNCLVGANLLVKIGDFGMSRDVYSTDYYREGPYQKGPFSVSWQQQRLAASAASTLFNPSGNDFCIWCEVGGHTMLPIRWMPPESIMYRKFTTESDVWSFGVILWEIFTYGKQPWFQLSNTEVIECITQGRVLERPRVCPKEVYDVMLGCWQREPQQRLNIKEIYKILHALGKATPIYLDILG

Molecule: control mIgG (irrelevant mouse IgG, isotype-matched controls) (antibody)
- mean channel fluorescence (mean channel fluorescence) [1]: 10

B1: neurotrophin-3 (NT-3) (ligand)
chain: YAEHKSHRGEYSVCDSESLWVTDKSSAIDIRGHQVTVLGEIKTGNSPVKQYFYETRCKEARPVKNGCRGIDDKHWNSQCKTSQTYVRALTSENNKLVGWRWIRIDTSCVCALSRKIGRT
- EC50 of p-ERK response in 3T3 cells expressing human TrkC (AlphaLisa) [2]: 0.3 nM
- surviving rat spiral ganglion neurons per well, 4 days in culture [3]: 10 to 20 neurons/well

B2: brain-derived neurotrophic factor (BDNF) (ligand, UniProt P23560 129-247, looked up)
chain: HSDPARRGELSVCDSISEWVTAADKKTAVDMSGGTVTVLEKVPVSKGQLKQYFYETKCNPMGYTKEGCRGIDKRHWNSQCRTTQSYVRALTMDSKKRIGWRFIRIDTSCVCTLTIKRGR
- EC50 of p-ERK response in HEK293 cells expressing human TrkB (AlphaLisa) [4]: 0.3 nM
- Maximal Effect % of p-ERK response in HEK293 cells expressing human TrkB (relative to 10 nM BDNF) [4]: 100%
- rat spiral ganglion neuron survival relative to 1 nM NT-3 (100%) [5]: 92%
